Results from publication PMC5221584.

Molecular target: β:C12A yeast αβ-tubulin (yeast) (UniProt P09733)
Assay: microtubule elongation rates by time-lapse DIC microscopy

affinity of the interactions that drive elongation (extrapolation to the x-axis): 42 nM
kon: 1.22e+07 M⁻¹ s⁻¹
Substance: β:C12A yeast αβ-tubulin (from UniProt P09733 1-447; P02557 1-457) (complex)
